Data on one protein can be found in FireProtDB (doi:10.1021/bi9707180).

The conditions of the data set: Aspergillus oryzae (strain ATCC 42149 / RIB 40), 0 °C, Urea, CD, reversible: yes, whole UniProt chain shown.

B1: Guanyl-specific ribonuclease T1 wild type, P00651 (protein)
chain: MMYSKLLTLTTLLLPTALALPSLVERACDYTCGSNCYSSSDVSTAQAAGYQLHEDGETVGSNSYPHKYNNYEGFDFSVSSPYYEWPILSSGDVYSGGSPGADRVVFNENNQLAGVITHTGASGNNFVECT
As for B1, for the setting “pH 2.5, glycine 30 mM”, the denaturant m value turned out to be 1.58 kcal/mol/M and the “denaturant midpoint (higher = more stable)” value turned out to be 2.78 M. In addition, for the setting “pH 7, MOPS 30 mM”, the denaturant m value was 1.28 kcal/mol/M and the “denaturant midpoint (higher = more stable)” value was 4.32 M.
